Source: patent US20240390512A1 (Daiichi Sankyo, published 2024)
Numbering of substitutions follows the chain as printed. One block for each binder: values may come before it.

Key:
[1] = biological target: T1, Recombinant Human CDH6 Fc His chimera (R&D Systems, Inc.) (human, UniProt P55285 54-615); assay: SPR (Biacore T200); antigen captured by immobilized anti-His antibody, antibody as analyte 0.391 to 100 nM; steady state affinity model
T1 construct: Bought reagent; also called the antigen; human CDH6 antigen; Fc part of the bought chimera not given; His tag of the bought chimera
T1 sequence: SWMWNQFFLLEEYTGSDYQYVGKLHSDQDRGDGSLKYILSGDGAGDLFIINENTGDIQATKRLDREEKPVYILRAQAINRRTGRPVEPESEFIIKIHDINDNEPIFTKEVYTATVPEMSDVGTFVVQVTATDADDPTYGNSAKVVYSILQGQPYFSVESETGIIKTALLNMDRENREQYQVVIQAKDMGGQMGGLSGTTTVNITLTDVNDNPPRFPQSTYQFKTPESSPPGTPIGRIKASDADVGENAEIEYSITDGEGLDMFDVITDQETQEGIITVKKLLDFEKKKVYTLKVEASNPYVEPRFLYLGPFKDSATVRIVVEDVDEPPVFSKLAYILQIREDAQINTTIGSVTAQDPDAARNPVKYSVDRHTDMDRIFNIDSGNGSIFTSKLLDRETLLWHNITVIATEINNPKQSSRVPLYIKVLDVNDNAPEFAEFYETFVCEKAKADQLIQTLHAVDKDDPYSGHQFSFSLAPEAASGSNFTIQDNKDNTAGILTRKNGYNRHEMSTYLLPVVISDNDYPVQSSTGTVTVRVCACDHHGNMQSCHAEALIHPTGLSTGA

[2] = biological target: T2, EC3 deletion mutant of human CDH6, on cells (human, UniProt P55285 54-790); assay: flow cytometry; 293α cells transfected with EC3-deleted hCDH6 (open line) against untransfected 293α cells (shaded); APC anti-human IgG goat F(ab')2; antibody concentration not given
T2 construct: in p3×FLAG-CMV-9; also called EC3-deleted hCDH6
T2 sequence: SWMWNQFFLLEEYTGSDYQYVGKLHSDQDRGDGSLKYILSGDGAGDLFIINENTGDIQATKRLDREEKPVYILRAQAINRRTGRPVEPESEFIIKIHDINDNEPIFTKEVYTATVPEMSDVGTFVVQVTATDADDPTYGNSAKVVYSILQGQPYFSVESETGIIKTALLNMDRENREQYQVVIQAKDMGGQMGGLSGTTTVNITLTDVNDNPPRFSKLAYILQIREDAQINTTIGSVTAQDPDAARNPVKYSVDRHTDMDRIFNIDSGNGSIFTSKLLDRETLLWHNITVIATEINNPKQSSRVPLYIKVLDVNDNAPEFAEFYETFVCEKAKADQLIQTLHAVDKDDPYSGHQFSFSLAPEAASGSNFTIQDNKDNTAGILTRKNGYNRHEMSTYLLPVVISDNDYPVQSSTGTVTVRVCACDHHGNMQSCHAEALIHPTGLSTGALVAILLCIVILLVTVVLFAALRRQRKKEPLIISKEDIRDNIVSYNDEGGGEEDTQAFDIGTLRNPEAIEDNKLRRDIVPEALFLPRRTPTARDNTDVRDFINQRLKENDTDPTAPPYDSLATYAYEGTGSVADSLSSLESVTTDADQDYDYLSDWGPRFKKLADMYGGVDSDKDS

[3] = biological target: T3, rat CDH6, on cells (rat, UniProt P55280 54-789); assay: flow cytometry; 293α cells transfected with rCDH6; PE anti-human IgG Fc(gamma) goat F(ab')
T3 construct: also called rCDH6; NP_037059
T3 sequence: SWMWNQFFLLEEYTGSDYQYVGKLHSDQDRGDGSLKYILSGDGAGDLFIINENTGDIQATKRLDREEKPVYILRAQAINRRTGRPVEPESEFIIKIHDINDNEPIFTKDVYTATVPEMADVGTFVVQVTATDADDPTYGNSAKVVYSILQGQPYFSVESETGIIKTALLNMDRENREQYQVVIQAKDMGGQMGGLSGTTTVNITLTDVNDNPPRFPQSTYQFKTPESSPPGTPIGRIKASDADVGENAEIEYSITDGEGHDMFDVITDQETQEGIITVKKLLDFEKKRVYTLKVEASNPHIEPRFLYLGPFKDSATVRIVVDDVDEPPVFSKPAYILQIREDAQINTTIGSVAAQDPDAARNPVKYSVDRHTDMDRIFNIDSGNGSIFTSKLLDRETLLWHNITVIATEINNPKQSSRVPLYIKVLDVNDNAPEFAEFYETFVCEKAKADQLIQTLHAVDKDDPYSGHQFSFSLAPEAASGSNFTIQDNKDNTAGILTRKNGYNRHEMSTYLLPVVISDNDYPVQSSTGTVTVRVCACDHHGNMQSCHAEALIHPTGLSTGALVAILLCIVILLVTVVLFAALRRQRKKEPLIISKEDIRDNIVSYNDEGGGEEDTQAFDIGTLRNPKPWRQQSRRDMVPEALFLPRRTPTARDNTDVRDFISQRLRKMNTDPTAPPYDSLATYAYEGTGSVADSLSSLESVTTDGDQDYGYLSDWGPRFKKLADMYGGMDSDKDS

[4] = biological target: T4, mouse CDH6, on cells (mouse, UniProt P97326 54-790); assay: flow cytometry; 293α cells transfected with mCDH6; PE anti-human IgG Fc(gamma) goat F(ab')
T4 construct: also called mCDH6; NP_031692
T4 sequence: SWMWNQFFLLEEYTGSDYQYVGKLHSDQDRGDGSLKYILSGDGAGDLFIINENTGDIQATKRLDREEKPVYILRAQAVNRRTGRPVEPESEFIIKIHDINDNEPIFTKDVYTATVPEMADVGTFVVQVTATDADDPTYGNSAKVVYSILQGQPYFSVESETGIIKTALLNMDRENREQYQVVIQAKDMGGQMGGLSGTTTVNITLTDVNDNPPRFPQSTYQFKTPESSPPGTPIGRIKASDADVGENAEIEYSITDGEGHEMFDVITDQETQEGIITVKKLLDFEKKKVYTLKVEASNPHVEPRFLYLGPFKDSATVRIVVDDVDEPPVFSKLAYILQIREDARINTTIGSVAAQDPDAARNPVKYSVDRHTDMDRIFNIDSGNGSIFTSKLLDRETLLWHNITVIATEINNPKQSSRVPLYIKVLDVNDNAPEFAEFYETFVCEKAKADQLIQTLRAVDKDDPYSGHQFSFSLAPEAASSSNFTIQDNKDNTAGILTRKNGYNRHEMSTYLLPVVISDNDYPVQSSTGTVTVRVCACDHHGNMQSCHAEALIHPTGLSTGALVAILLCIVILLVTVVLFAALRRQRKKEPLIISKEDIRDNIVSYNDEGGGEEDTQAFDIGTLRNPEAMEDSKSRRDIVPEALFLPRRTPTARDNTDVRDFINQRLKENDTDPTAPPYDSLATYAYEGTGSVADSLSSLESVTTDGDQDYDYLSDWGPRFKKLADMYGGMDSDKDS

[5] = biological target: T5, cynomolgus monkey CDH6, on cells (cynomolgus monkey, UniProt P55285 54-790 (human entry)); assay: flow cytometry; 293α cells transfected with pcDNA3.1-cynoCDH6; PE anti-human IgG Fcγ F(ab')2
T5 construct: Expressed from pcDNA3.1-cynoCDH6; also called cynoCDH6
T5 sequence: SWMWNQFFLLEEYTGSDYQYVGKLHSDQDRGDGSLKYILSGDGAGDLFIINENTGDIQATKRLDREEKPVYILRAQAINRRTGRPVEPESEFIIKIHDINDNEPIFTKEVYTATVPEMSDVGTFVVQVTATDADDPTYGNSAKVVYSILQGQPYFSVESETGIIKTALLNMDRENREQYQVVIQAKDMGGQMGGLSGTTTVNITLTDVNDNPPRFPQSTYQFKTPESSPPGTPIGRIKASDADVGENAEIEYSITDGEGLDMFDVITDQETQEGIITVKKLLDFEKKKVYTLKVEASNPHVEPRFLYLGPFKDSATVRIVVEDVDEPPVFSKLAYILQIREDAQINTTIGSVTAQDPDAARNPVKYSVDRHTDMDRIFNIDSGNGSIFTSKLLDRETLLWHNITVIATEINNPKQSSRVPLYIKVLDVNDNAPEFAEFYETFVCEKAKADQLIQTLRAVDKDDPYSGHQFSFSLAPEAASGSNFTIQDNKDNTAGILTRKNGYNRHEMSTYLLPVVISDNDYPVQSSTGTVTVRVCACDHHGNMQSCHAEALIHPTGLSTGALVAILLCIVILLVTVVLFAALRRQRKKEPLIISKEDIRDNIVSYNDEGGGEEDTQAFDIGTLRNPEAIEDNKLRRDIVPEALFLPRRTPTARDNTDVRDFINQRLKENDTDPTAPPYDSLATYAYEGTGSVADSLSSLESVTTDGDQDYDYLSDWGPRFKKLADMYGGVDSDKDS

[6] = biological target: T6, human CDH6 (cadherin-6), full-length, on cells (human, UniProt P55285 54-790); assay: flow cytometry; 293α cells transfected with pcDNA3.1-hCDH6; PE anti-human IgG Fcγ F(ab')2
T6 construct: also called hCDH6; full-length hCDH6
T6 sequence: T5 sequence with H300Y, R457H, G707A

Kd [1]: 1.1 nM
binding result [2]: no binding
B1: humanized anti-CDH6 antibody H02L02 (antibody, human IgG1, kappa, V domains shown)
VH: EVQLVQSGAEVKKPGASVKVSCKASGYTFTRNFMHWVRQAPGQGLEWMGWIYPGDGETEYNQKFQGRVTITADRSTSTAYMELSSLRSEDTAVYFCARGVYGGFAGGYFDFWGQGTLVTVSS
VL: DIQMTQSPSSLSASVGDRVTITCKASQNIYKNLAWYQQKPGKAPKLLIYDANTLQTGVPSRFSGSGSGSDFTLTISSLQPEDFATYFCQQYYSGWAFGQGTKVEIKR
notes: hH02 heavy chain and hL02 light chain, human IgG1 / kappa; also called H02L02 antibody
binding result [3]: no binding (tested: about 4, unit not printed on the axis)
binding result [4]: no binding (tested: about 4, unit not printed on the axis)

Kd [1]: 1.4 nM
binding result [2]: no binding
B2: humanized anti-CDH6 antibody H02L03 (antibody, human IgG1, kappa, V domains shown)
VH: B1 VH
VL: B1 VL with P40L, K42E, A43G, S69T, F87Y
notes: hH02 heavy chain and hL03 light chain, human IgG1 / kappa; also called H02L03 antibody
binding result [3]: no binding (tested: about 4, unit not printed on the axis)
binding result [4]: no binding (tested: about 4, unit not printed on the axis)

Kd [1]: 1.5 nM
binding result [2]: no binding
B3: humanized anti-CDH6 antibody H01L02 (antibody, human IgG1, kappa, V domains shown)
VH: B1 VH with N61A, R74T, F95Y
VL: B1 VL
notes: hH01 heavy chain and hL02 light chain, human IgG1 / kappa; also called H01L02 antibody; humanized hG019 (H01L02)
binding result [3]: no binding (tested: about 4, unit not printed on the axis)
binding result [4]: no binding (tested: about 4, unit not printed on the axis)

EC50 (read off the curve) [5]: ~0.01 µg/mL
EC50 (read off the curve) [6]: ~0.01 µg/mL
B4: human chimeric anti-CDH6 antibody chG019 (antibody, human IgG1)
heavy: not shown
light: DIQMTQSPSLLSASVGDRVTLNCKASQNIYKNLAWYQQKLGEGPKLLIYDANTLQTGIPSRFSGSGSGSDFTLTISSLQPEDVATYFCQQYYSGWAFGGVTNLELKRAVAAPSVFIFPPSDEQLKSGTASVVCLLNNFYPREAKVQWKVDNALQSGNSQESVTEQDSKDSTYSLSSTLTLSKADYEKHKVYACEVTHQGLSSPVTKSFNRGEC
notes: human IgG1 / kappa constant regions; also called chimeric G019 antibody; chG019 antibody
